B1: SH3 domain-binding protein 2 (Mus musculus), Q06649 (parent)
chain: MAAEEMQWPVPMKAIGAQNLLTMPGGVAKAGYLHKKGGTQLQLLKWPLRFVIIHKRCIYYFKSSTSASPQGAFSLSGYNRVMRAAEETTSNNVFPFKIIHISKKHRTWFFSASSEDERKSWMAFVRREIGHFHEKKELPLDTSDSSSDTDSFYGAVERPIDISLSSYPMDNEDYEHEDEDDSYLEPDSPGPMKLEDALTYPPAYPPPPVPVPRKPAFSDLPRAHSFTSKSPSPLLPPPPPKRGLPDTGSAPEDAKDALGLRRVEPGLRVPATPRRMSDPPMSNVPTVPNLRKHPCFRDSVNPGLEPWTPGHGTSSVSSSTTMAVATSRNCDKLKSFHLSSRGPPTSEPPPVPANKPKFLKIAEEPSPREAAKFAPVPPVAPRPPVQKMPMPEATVRPAVLPRPENTPLPHLQRSPPDGQSFRGFSFEKARQPSQADTGEEDSDEDYEKVPLPNSVFVNTTESCEVERLFKATDPRGEPQDGLYCIRNSSTKSGKVLVVWDESSNKVRNYRIFEKDSKFYLEGEVLFASVGSMVEHYHTHVLPSHQSLLLRHPYGYAGPR

Variants of: B1
Settings: with rn146_human RNF146, Q9NTX7
Chain of rn146_human RNF146, Q9NTX7 (Q9NTX7 whole entry): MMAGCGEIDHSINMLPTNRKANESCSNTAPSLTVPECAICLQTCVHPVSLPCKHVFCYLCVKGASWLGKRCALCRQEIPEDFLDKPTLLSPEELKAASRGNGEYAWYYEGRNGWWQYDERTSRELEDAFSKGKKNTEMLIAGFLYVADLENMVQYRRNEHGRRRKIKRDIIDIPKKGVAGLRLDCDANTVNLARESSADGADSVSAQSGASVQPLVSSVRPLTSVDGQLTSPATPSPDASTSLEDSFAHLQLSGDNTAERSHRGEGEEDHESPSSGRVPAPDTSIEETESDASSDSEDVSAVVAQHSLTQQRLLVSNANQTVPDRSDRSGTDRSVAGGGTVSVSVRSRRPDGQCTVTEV

Row | Variant | effect of a mutation on the interaction
1 | MAAEEMQWPVPMKAIGAQNLLTMPGGVAKAGYLHKKGGTQLQLLKWPLRFVIIHKRCIYYFKSSTSASPQGAFSLSGYNRVMRAAEETTSNNVFPFKIIHISKKHRTWFFSASSEDERKSWMAFVRREIGHFHEKKELPLDTSDSSSDTDSFYGAVERPIDISLSSYPMDNEDYEHEDEDDSYLEPDSPGPMKLEDALTYPPAYPPPPVPVPRKPAFSDLPRAHSFTSKSPSPLLPPPPPKRGLPDTGSAPEDAKDALGLRRVEPGLRVPATPRRMSDPPMSNVPTVPNLRKHPCFRDSVNPGLEPWTPGHGTSSVSSSTTMAVATSRNCDKLKSFHLSSRGPPTSEPPPVPANKPKFLKIAEEPSPREAAKFAPVPPVAPRPPVQKMPMPEATVRPAVLPRPENTPLPHLQQSPPDGQSFRGFSFEKARQPSQADTGEEDSDEDYEKVPLPNSVFVNTTESCEVERLFKATDPRGEPQDGLYCIRNSSTKSGKVLVVWDESSNKVRNYRIFEKDSKFYLEGEVLFASVGSMVEHYHTHVLPSHQSLLLRHPYGYAGPR [R413Q] | decreasing interaction

Variants of: B1
Settings: with tnks1_human TNKS

Row | Variant | effect of a mutation on the interaction
2 | MAAEEMQWPVPMKAIGAQNLLTMPGGVAKAGYLHKKGGTQLQLLKWPLRFVIIHKRCIYYFKSSTSASPQGAFSLSGYNRVMRAAEETTSNNVFPFKIIHISKKHRTWFFSASSEDERKSWMAFVRREIGHFHEKKELPLDTSDSSSDTDSFYGAVERPIDISLSSYPMDNEDYEHEDEDDSYLEPDSPGPMKLEDALTYPPAYPPPPVPVPRKPAFSDLPRAHSFTSKSPSPLLPPPPPKRGLPDTGSAPEDAKDALGLRRVEPGLRVPATPRRMSDPPMSNVPTVPNLRKHPCFRDSVNPGLEPWTPGHGTSSVSSSTTMAVATSRNCDKLKSFHLSSRGPPTSEPPPVPANKPKFLKIAEEPSPREAAKFAPVPPVAPRPPVQKMPMPEATVRPAVLPRPENTPLPHLQQSPPDGQSFRGFSFEKARQPSQADTGEEDSDEDYEKVPLPNSVFVNTTESCEVERLFKATDPRGEPQDGLYCIRNSSTKSGKVLVVWDESSNKVRNYRIFEKDSKFYLEGEVLFASVGSMVEHYHTHVLPSHQSLLLRHPYGYAGPR [R413Q] | disrupting interaction

From IntAct's records for PubMed 22153076
